Results published in patent US20190271021A1 (Hoffmann-La Roche, published 2019).

Tests used:
[1] = target: T1, TrkB-Fc fusion (R&D Systems) (UniProt Q16620 32-430); test: TrkB ELISA, plate coated with TrkB-Fc, detection with anti-BDNF antibody
T1 construct: the ELISA paragraph says only TrkB-Fc fusion (R&D Systems); also called Human Fc-tagged TrkB; not shown: Fc part of the bought fusion
Protocol: The binding properties of BDNF-containing fusion proteins were determined with a TrkB ELISA. Maxisorb plates were coated with 1 μg/mL of a TrkB-Fc fusion (R&D Systems) in PBS overnight at 4° C. After blocking the plate with PBSTC (PBS with 0.05% Tween-20 and 2% Chicken serum (Gibco)) for 1 h at RT and three washes with PBST, BDNF-containing fusion proteins or BDNF alone were added to the wells at concentrations of 15 to 500 ng/mL in PBSTC and incubated for 2 h at RT. After six washes, the wells were incubated with mouse-anti-BDNF antibody (clone 4F11.1A1, 1 μg/mL in PBSTC) and, after further washes, with anti-mouse-HRP antibody (1:10000 in PBSTC), both for 1 h at RT. After three washes with PBST, HRP activity was detected using ABTS substrate and photometric quantification at a wavelength of 492 nm.

[2] = target: T2, human TrkB on CHO cells (CHO-K1-hTrkB/pSRE-Luc) (human, UniProt Q16620 32-822); test: cell-based or functional assay
[3] = target: T2, human TrkB on CHO cells …; test: cell-based or functional assay; remark: listed apart in the source

T1 sequence (Q16620 32-430 limits assumed): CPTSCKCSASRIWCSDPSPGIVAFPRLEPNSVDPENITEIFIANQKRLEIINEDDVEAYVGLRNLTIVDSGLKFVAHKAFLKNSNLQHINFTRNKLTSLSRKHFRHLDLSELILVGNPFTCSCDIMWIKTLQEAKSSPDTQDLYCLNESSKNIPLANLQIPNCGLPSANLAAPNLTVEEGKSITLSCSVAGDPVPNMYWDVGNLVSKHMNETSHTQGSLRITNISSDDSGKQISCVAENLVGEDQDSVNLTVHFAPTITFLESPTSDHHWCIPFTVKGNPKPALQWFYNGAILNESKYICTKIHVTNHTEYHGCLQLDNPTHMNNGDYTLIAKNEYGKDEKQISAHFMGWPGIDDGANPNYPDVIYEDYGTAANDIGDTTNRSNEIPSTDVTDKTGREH
T2 sequence (Q16620 32-822): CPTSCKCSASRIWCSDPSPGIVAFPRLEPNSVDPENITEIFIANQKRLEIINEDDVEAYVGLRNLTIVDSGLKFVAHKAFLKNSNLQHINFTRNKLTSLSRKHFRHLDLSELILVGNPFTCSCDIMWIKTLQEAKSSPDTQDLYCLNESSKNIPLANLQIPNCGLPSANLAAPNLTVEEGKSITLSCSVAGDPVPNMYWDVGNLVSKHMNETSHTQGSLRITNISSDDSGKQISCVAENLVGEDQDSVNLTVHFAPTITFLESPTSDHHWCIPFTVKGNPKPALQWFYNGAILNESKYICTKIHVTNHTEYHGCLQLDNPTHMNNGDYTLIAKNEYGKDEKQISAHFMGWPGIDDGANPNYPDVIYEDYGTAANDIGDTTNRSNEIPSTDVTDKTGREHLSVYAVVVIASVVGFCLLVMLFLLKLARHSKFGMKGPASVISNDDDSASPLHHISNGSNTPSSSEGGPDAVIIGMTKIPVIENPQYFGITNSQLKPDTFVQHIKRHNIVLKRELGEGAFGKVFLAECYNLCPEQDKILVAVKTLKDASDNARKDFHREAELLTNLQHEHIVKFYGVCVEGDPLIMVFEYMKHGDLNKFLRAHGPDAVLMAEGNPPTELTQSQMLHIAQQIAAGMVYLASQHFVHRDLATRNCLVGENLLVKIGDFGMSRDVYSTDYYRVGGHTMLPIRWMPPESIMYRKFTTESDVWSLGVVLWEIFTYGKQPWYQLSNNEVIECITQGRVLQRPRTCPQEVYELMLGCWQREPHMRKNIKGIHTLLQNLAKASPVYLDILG

| Binder | EC50 [1] | BDNF activity in TrkBluciferase assay, EC50 [% or nM] [2] | relative BDNF activity in TrkB luciferase assay, EC50 [%] [3] |
| --- | --- | --- | --- |
| pre-pro-BDNF(-RGD)_(G4S)2GG_VH<IGF-1R>-CH1-His6 with anti-IGF-1R antibody light chain (other, BDNF part of the entry is the pre-pro precursor) heavy: HSDPARRGELSVCDSISEWVTAADKKTAVDMSGGTVTVLEKVPVSKGQLKQYFYETKCNPMGYTKEGCRGIDKRHWNSQCRTTQSYVRALTMDSKKRIGWRFIRIDTSCVCTLTIKGGGGSGGGGSGGQVELVESGGGVVQPGRSQRLSCAASGFTFSSYGMHWVRQAPGKGLEWVAIIWFDGSSTYYADSVRGRFTISRDNSKNTLYLQMNSLRAEDTAVYFCARELGRRYFDLWGRGTLVSVSSASTKGPSVFPLAPSSKSTSGGTAALGCLVKDYFPEPVTVSWNSGALTSGVHTFPAVLQSSGLYSLSSVVTVPSSSLGTQTYICNVNHKPSNTKVDKKVGSGHHHHHH light: not shown | 17 nM | – | – |
| complex of pre-pro-BDNF(-RGD)_(G4S)2GG_VH<IGF-1R>-CH1-His6, anti-IGF-1R antibody light chain and not-fused pre-pro-BDNF(-RGR)-T7-His6 (other, BDNF-Fab fusion co-expressed with light chain and not-fused BDNF; BDNF entries are pre-pro precursors) heavy: HSDPARRGELSVCDSISEWVTAADKKTAVDMSGGTVTVLEKVPVSKGQLKQYFYETKCNPMGYTKEGCRGIDKRHWNSQCRTTQSYVRALTMDSKKRIGWRFIRIDTSCVCTLTIKGGGGSGGGGSGGQVELVESGGGVVQPGRSQRLSCAASGFTFSSYGMHWVRQAPGKGLEWVAIIWFDGSSTYYADSVRGRFTISRDNSKNTLYLQMNSLRAEDTAVYFCARELGRRYFDLWGRGTLVSVSSASTKGPSVFPLAPSSKSTSGGTAALGCLVKDYFPEPVTVSWNSGALTSGVHTFPAVLQSSGLYSLSSVVTVPSSSLGTQTYICNVNHKPSNTKVDKKVGSGHHHHHH light: not shown HSDPARRGELSVCDSISEWVTAADKKTAVDMSGGTVTVLEKVPVSKGQLKQYFYETKCNPMGYTKEGCRGIDKRHWNSQCRTTQSYVRALTMDSKKRIGWRFIRIDTSCVCTLTIKGSGMASMTGGQQMGHHHHHH | 6.1 nM | – | – |
| pre-pro-BDNF(-RGD)_(G4S)4GG_VH<IGF-1R>-CH1-His6 with anti-IGF-1R antibody light chain (other, BDNF part of the entry is the pre-pro precursor) heavy: HSDPARRGELSVCDSISEWVTAADKKTAVDMSGGTVTVLEKVPVSKGQLKQYFYETKCNPMGYTKEGCRGIDKRHWNSQCRTTQSYVRALTMDSKKRIGWRFIRIDTSCVCTLTIKGGGGSGGGGSGGGGSGGGGSGGQVELVESGGGVVQPGRSQRLSCAASGFTFSSYGMHWVRQAPGKGLEWVAIIWFDGSSTYYADSVRGRFTISRDNSKNTLYLQMNSLRAEDTAVYFCARELGRRYFDLWGRGTLVSVSSASTKGPSVFPLAPSSKSTSGGTAALGCLVKDYFPEPVTVSWNSGALTSGVHTFPAVLQSSGLYSLSSVVTVPSSSLGTQTYICNVNHKPSNTKVDKKVGSGHHHHHH light: not shown | 13.5 nM | – | – |

Continued, values first:

| EC50 [1] | BDNF activity in TrkBluciferase assay, EC50 [% or nM] [2] | relative BDNF activity in TrkB luciferase assay, EC50 [%] [3] | Binder |
| --- | --- | --- | --- |
| 5.7 nM | 0.44 nM | 60% | wild-type BDNF (E. coli) (ligand, No tag, no linker, RGR not deleted; also called wt-BDNF; non-glycosylated mature wild-type BDNF) HSDPARRGELSVCDSISEWVTAADKKTAVDMSGGTVTVLEKVPVSKGQLKQYFYETKCNPMGYTKEGCRGIDKRHWNSQCRTTQSYVRALTMDSKKRIGWRFIRIDTSCVCTLTIKRGR |
| 18.5 nM | – | – | pre-pro-BDNF(-RGD)_(G4S)6GG_VH<IGF-1R>-CH1-His6 with anti-IGF-1R antibody light chain (other, BDNF part of the entry is the pre-pro precursor) heavy: HSDPARRGELSVCDSISEWVTAADKKTAVDMSGGTVTVLEKVPVSKGQLKQYFYETKCNPMGYTKEGCRGIDKRHWNSQCRTTQSYVRALTMDSKKRIGWRFIRIDTSCVCTLTIKGGGGSGGGGSGGGGSGGGGSGGGGSGGGGSGGQVELVESGGGVVQPGRSQRLSCAASGFTFSSYGMHWVRQAPGKGLEWVAIIWFDGSSTYYADSVRGRFTISRDNSKNTLYLQMNSLRAEDTAVYFCARELGRRYFDLWGRGTLVSVSSASTKGPSVFPLAPSSKSTSGGTAALGCLVKDYFPEPVTVSWNSGALTSGVHTFPAVLQSSGLYSLSSVVTVPSSSLGTQTYICNVNHKPSNTKVDKKVGSGHHHHHH light: not shown |
| 8.9 nM | – | – | pre-pro-BDNF(-RGR)-T7-His6 (ligand, Entry is the pre-pro precursor as expressed (HEK293); values normalized to maturated BDNF; also called pp-BDNF; parental construct) HSDPARRGELSVCDSISEWVTAADKKTAVDMSGGTVTVLEKVPVSKGQLKQYFYETKCNPMGYTKEGCRGIDKRHWNSQCRTTQSYVRALTMDSKKRIGWRFIRIDTSCVCTLTIKGSGMASMTGGQQMGHHHHHH |
